# From IntAct's records for PubMed 11124807
# B1: Sex-determining transformer protein 1 (Caenorhabditis elegans), P34708 (parent)
# chain: MMAPSTEDPDTVVEAQRRGSFSKKKNANGWNKVELVDQCAKQMGSEDKQPGGGDVKTENDPSKNGLGSATSNFIQSSVPPSHQTLSNPLQLSPPAEASVAQQSGASQVFPTFQAALGASSDELLQPNATSSSTSSSASTSSIVPVVKFTNQTAPNGSTVATSVGQNVRLTINGKRVGRPPGTFKRPQNNAANSSNSGNDSDMMGDHDLTCRWKSCNSSFQTLKALVDHVQESHVQSTEQEHHAWRCEWEGCDRNETFKALYMLIVHVRRHTGEKPNKCEYPGCGKEYSRLENLKTHRRTHTGEKPYKCEFADCEKAFSNASDRAKHQNRTHSNLKPYSCQIPQCTKSYTDPSSLRKHIKAVHGDDEYEKAKKSRPANYSNRRRPDHRLAPPTGAMSHPYLATPNSGASVVAHSSVHQQNFINMALAQHHHNAQRAQQLMAATGNVMPMMDPASAAAAAQAQAHHQAQAQMLQTHMMQQAQIQAAAQMQAQVQHQAAMQAHAMQQAQMVLQNNLLGAQSLLSPFSPLLPPSRAPNVMAMLQTPPTPTSVAPMFDIMTSRAPMAPVVSAPTAPAPLVPAPVPASPVFDELREQMREVEPLQQQQQQEPMDQDLQDIRVDGDSDDEDEEEPRTPSGALLLPRGGNNGDGGFGGSGSSRASSGSGTMELSAAPISQNGSRASGSGERGMRSFLIADILQLAADFQNERLLSDVLDLAIFDTRDVRSLHNIYQVYIRAHKAIPITRRPLDWNETHQLHNLYHDPRFNRAEHQDSPAIRDRDTRFWRTIAEANTMRQRQIEPVPLDDDDEGYFDEMVHRVQNGRLNEQFMEGFESDDDDGFEDEDDVPGLGIAVYRGRRRVRREALKQANLDIQEAETAGRNVGGFGDEEDRNNRGHDQDRSFLDHYYPPMVVVVETESPQIVRDQEMMRQFEEAKKNVETDEIKKRAEAMQFGTSSSHHHTKTLLIQRALFDKTSSVRRSLLQFITISVDQEELRQSCHATSAPQGAHVVHNVVDEFDSIMRAQEDSNNRILLSLDIPAPSAVTGVSGSITHADNSALQLQQEQPTSSFSSWFPEDDPIYALPPPPPPPAPPRRRRSADNKDDSENIPKKPRHQF
# partner: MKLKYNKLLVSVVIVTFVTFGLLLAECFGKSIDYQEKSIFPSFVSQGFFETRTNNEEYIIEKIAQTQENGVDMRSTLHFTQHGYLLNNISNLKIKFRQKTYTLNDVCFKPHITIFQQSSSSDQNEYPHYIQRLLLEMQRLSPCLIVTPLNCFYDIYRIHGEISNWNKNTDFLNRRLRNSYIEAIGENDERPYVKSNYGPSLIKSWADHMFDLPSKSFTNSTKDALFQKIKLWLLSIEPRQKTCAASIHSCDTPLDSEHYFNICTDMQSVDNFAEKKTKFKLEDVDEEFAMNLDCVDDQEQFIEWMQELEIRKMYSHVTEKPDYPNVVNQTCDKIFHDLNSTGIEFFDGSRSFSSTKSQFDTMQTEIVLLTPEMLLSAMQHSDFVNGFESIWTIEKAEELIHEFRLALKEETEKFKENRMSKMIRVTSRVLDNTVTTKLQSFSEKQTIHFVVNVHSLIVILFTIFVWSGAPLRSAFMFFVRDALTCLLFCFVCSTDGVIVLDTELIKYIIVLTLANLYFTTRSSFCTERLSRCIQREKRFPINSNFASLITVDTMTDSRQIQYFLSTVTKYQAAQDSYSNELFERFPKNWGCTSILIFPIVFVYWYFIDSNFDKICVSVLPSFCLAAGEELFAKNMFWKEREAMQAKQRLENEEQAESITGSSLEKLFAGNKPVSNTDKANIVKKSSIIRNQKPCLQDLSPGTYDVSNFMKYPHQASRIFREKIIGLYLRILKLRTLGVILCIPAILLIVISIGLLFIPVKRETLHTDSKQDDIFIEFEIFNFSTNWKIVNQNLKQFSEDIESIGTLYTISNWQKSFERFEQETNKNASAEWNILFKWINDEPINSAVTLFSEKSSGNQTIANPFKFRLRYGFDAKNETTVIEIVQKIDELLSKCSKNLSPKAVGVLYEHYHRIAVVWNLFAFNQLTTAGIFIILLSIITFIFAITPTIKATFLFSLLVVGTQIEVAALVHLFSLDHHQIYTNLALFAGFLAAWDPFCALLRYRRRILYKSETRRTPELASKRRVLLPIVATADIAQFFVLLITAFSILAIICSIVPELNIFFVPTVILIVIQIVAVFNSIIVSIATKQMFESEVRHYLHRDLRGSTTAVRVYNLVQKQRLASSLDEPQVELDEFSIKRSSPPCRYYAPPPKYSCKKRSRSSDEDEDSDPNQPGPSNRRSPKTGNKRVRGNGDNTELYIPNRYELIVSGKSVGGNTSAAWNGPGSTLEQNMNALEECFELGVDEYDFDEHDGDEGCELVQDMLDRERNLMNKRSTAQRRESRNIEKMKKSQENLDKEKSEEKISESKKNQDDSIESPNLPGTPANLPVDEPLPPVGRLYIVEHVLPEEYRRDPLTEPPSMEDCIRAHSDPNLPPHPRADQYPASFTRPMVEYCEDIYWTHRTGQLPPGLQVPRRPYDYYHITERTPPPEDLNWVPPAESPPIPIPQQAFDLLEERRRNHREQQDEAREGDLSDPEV
# B2: Sex-determining transformer protein 2 (Caenorhabditis elegans), P34709 (parent)
# chain: B1 partner
# partner: B1 chain
# Variants of: B1
# Conditions: with tra2_caeel tra-2, P34709
row,Variant,effect of a mutation on the interaction
1,L723F,decreasing interaction

# Variants of: B2
# Conditions: with tra1_caeel tra-1, P34708
row,Variant,effect of a mutation on the interaction
1,C1392Y;E1393K;R1400Q,decreasing interaction
